{"source": "paper PMC6271298", "about": "“Pharmacophore Generation from a Drug-like Core Molecule Surrounded by a Library Peptide via the 10BASEd-T on Bacteriophage T7” (Molecules, 2014)", "binders": {"B1": {"name": "Sal-conjugated fluorescent peptide possessing the sequence of clone 7 (K-5/6-FAM-A-M-W-C*-Q-Y-H-P-Q-N-C*-Y-K-M-NH2) (peptide)", "peptide": "KAMWCQYHPQNCYKM", "modifications": "5/6-FAM on the N-terminal lysine (K-5/6-FAM); Sal-conjugated Cys (C*) at both cysteines; C-terminal amide (NH2)", "notes": "Linear peptide; both cysteines are alkylated with 4-acetamidosalicylic acid (thioether); also called Sal-conjugated peptide; Sal-conjugated linear peptide; source: synthetic peptide (solid phase synthesis, HPLC), then conjugated with Sal-IA and purified by reverse-phase HPLC"}, "B2": {"name": "mock (Sal-unconjugated) fluorescent peptide (H2N-K-5/6-FAM-A-M-W-C-Q-Y-H-P-Q-N-C-Y-K-M-NH2) (peptide)", "peptide": "H-K(5/6‑FAM)AMWCQYHPQNCYKM-NH2", "modifications": "cysteine pairing not given here", "notes": "cysteines not alkylated; Assayed under reducing conditions (1 mM TCEP), so the cysteines are free thiols; also called mock peptide; unmodified fluorescent peptide; source: synthetic peptide (solid phase synthesis, reverse-phase HPLC)"}}, "target": "T1, streptavidin (UniProt P22629 25-183)", "T1 construct": "streptavidin; Commercial streptavidin is usually a homotetramer of a processed (core) form; also called SA; source: bought: Wako Pure Chemical Industries (ELISA)", "T1 sequence (P22629 25-183)": "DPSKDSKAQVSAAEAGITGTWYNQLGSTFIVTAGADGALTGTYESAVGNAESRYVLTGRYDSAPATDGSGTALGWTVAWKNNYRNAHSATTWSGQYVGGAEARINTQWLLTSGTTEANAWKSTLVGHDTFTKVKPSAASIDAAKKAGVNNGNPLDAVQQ", "test": "fluorescence polarisation; 4 pmol FAM-labelled peptide with various concentrations of the protein; 50 mM Tris-HCl pH 8.0, 150 mM NaCl, 1 mM TCEP-NaOH, 30 °C; Klotz plot, non-linear least squares fit", "details": "both partners purified", "note": "5/6‑FAM = 5/6-carboxyfluorescein", "data": [{"binder": "B1", "values": [{"measurement": "Kd", "result": 180, "unit": "nM"}]}, {"binder": "B2", "values": [{"measurement": "fold lower affinity than the Sal-conjugated peptide", "result": "~10", "unit": "fold"}]}]}
